What was measured:
[1] = biological target: full-length SNAP-tagged NKG2D on HEK293 TRex cells (co-expressed with DAP10) (human) (UniProt P26718); experiment: FRET or BRET
[2] = biological target: T1, MICA ECD (24 to 297), not dye-labeled (human, UniProt Q29983 24-297); experiment: SEC-MALS
T1 sequence: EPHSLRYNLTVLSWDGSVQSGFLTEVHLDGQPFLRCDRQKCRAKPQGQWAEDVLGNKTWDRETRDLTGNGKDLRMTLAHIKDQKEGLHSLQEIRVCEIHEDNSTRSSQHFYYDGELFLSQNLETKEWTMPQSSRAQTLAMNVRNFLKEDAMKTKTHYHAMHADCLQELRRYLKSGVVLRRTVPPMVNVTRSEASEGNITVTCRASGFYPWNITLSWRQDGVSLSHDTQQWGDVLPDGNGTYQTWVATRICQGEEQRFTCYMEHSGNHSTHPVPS

[3] = biological target: T1, MICA ECD (24 to 297), not dye-labeled; experiment: SPR
[4] = biological target: T2, Alexa Fluor 647-labeled MICB ECD (24 to 297) (human, UniProt Q29980 24-297, AF647 label on Cys213); experiment: FRET or BRET
T2 sequence: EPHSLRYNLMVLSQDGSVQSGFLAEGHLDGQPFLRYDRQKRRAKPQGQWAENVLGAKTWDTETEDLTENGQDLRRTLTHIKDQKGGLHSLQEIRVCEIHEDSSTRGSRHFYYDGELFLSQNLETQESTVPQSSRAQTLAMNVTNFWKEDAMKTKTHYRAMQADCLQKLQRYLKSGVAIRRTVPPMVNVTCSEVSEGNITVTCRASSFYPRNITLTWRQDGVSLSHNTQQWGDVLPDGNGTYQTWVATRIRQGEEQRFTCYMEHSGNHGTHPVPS

In the case of “Alexa Fluor 647-labeled ULBP6 ECD (29 to 207) (from UniProt Q5VY80 29-207) (ligand)”, the Kd [1] is reported as 2.5 nM.

B1: hNKG2D 90-216, S117E, I173S mutant (domain or fragment)
chain: MGPLTESYCGPCPKNWICYKNNCYQFFDEEKNWYESQASCMSQNASLLKVYSKEDQDLLKLVKSYHWMGLVHIPTNGSWQWEDGSSLSPNLLTIIEMQKGDCALYASSFKGYIENCSTPNTYICMQRTV
B1: binds [2].

B2: biotinylated and detagged NKG2D ECD (90 to 216) (domain or fragment)
chain: PLTESYCGPCPKNWICYKNNCYQFFDESKNWYESQASCMSQNASLLKVYSKEDQDLLKLVKSYHWMGLVHIPTNGSWQWEDGSILSPNLLTIIEMQKGDCALYASSFKGYIENCSTPNTYICMQRTV
modifications: biotin on the Avi tag
B2 showed a Kd [3] of 48 nM.

B3: full-length SNAP-tagged NKG2D on HEK293 TRex cells (co-expressed with DAP10) (receptor)
chain: MGWIRGRRSRHSWEMSEFHNYNLDLKKSDFSTRWQKQRCPVVKSKCRENASPFFFCCFIAVAMGIRFIIMVTIWSAVFLNSLFNQEVQIPLTESYCGPCPKNWICYKNNCYQFFDESKNWYESQASCMSQNASLLKVYSKEDQDLLKLVKSYHWMGLVHIPTNGSWQWEDGSILSPNLLTIIEMQKGDCALYASSFKGYIENCSTPNTYICMQRTV
modifications: terbium label on the SNAP-tag
B3 showed a Kd [4] of 700 nM.
